The target in experiment [1] is T1, cynomolgus monkey TNFR2 extracellular domain as used in the blocking ELISA (cynomolgus monkey, UniProt P20333 23-257 (human entry)).
T1 construct: also called cynoTNFR2
T1 chain: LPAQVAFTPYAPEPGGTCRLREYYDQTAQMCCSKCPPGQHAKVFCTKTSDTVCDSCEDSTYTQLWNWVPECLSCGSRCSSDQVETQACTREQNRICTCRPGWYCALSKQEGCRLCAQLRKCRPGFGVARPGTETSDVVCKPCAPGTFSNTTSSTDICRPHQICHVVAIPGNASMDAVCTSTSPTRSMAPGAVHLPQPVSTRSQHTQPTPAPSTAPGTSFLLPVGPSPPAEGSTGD
The experiment is described as follows: blocking ELISA: antibody pre-mixed with cynoTNFR2, binding of cynoTNFR2 to coated cynomolgus monkey TNFα read out. As for the experimental part: 96-well round bottom ELISA plates were coated overnight at 4° C. with 50 μL/well of 0.5 μg/mL human TNFα recombinant protein (R&D system, Cat #210-TA-100) in coating buffer. After removing the coating solution, blocking buffer was added into the plates followed by incubation at room temperature for 1 hour in order to block unspecific binding. During the blocking period, hybridoma antibodies samples were mixed with 0.5 μg/mL TNFR2-huFc at a 1:1 volume ratio and incubated at room temperature for another 1.5 hours. Then 50 μL/well of antigen-antibody mix solution was transferred into TNFα coated wells and incubated at room temperature for 1.5 hours. Plates were then washed 5 times with wash buffer. Then, 50 μL/well of goats anti-human IgG Fc-AP (Southern Biotech, cat #2014-04) at 1:2000 dilution in assay buffer was added, incubated at room temperature for 1 hour, washed 4 times with wash buffer and developed for 30 minutes with 50 μL/well of pNPP substrate. Plates were analyzed with a Synergy HT (Bio-TEK) at 405 nm. Parental hybridomas with the desired human and cynoTNFR2 binding as well as the ability to block human TNFR2 and human TNFα binding were prioritized for subcloning and further characterization. Subcloning was carried out with limited dilution and visual inspection was performed to ensure clonality. Hybridoma subclones were screened with the same binding and blocking assays and selected positive hits were cryopreserved.
TNFR2 blocking by purified recombinant chimeric antibodies: Human TNFR2 blocking ELISA was performed on purified recombinant chimeric antibodies following the same protocol as described above, except that 50 μL/well of serial dilution of purified antibodies (starting at 10 μg/mL, 1:3 dilution) in assay buffer was added into the reaction. The blocking IC₅₀ value represents the antibody concentration that inhibited 50% of huTNFR2 or cynoTNFR2 binding to coated human TNFα or cynomolgus monkey TNFα.
(An ELISA detects its analyte on a solid surface through an enzyme-linked reagent.)

The target in experiment [2] is T2, cynomolgus monkey TNFR2 extracellular domain with C-terminal 10×His tag (cynomolgus monkey, UniProt P20333 23-257 (human entry)).
T2 construct: also called cynoTNFR2-His; His-tag-cynoTNFR2
T2 chain: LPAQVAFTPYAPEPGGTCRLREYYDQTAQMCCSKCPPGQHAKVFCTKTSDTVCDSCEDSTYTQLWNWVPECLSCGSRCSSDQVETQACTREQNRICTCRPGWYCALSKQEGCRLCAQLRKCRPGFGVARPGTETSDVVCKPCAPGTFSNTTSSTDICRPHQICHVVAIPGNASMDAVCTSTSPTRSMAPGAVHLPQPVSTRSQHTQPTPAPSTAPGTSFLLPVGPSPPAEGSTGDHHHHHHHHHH
The experiment is described as follows: BLI (Octet RED96), antibody captured on AHC biosensor, His-tagged TNFR2 in solution, 1:1 model. As for the experimental part:
The following kinetic assay was performed using anti-human IgG Fc capture (AHC) biosensors (ForteBio) in kinetics buffer (PBS, 0.1% Tween-20 and 1% bovine serum albumin): (a) antibody (2 μg/mL) for 300 sec, (b) baseline for 120 sec, (c) association with His-tag-huTNFR2 (2.5, 0.5 and 0 μg/mL) and His-tag-cynoTNFR2 (2.5, 0.5 and 0 μg/mL) for 420 sec and (d) dissociation for 1200 sec. Data fitting and analysis was performed with Octet data analysis software 8.0 (ForteBio) using a 1:1 binding model after Savitzky-Golay filtering.
A general note: BLI is a label-free optical method that tracks binding on a fibre tip over time.

Experiment [3] has as its target T2, cynomolgus monkey TNFR2 extracellular …. The experiment is described as follows: ELISA, plate coated with His-tagged TNFR2 ECD, serial dilution of chimeric IgG. As for the experimental part: TNFR2 binding of purified recombinant chimeric antibodies: The huTNFR2, cynoTNFR2 antigen binding ELISA was performed on the purified recombinant chimeric antibodies. Briefly, 384-well, clear, flat bottom, high binding plates (VWR, cat #29444-096) were coated overnight at 4° C. with 1 μg/mL of huTNFR2 or cynomolgus monkey TNFR2-His in PBS. After removing the coating solution, the plates were blocked by adding blocking buffer and incubated at room temperature for 1 hour. Plates were then washed 3 times with wash buffer. Serial dilution of purified antibodies in PBS was added to individual well followed by incubation at room temperature for 1 hour. Plates were washed 3 times with wash buffer. Then 50 μL/well of goat anti hu Kappa —AP (Southern Biotech, cat #2061-04) at 1:3000 dilution or goat anti human IgG Fc-AP at 1:3000 dilution in ELISA diluent was added, incubated at room temperature for 1 hour, washed 5 times with wash buffer and developed for 30 minutes with 50 μL/well of pNPP substrate. Plates were analyzed with a Bio-TEK at 405 nm. The chimeric TNFR2 antibodies were tested positive for binding to huTNFR2 and cynoTNFR2. The TNFR2 binding EC50 values are shown in Table 6, FIG. 1A (for huTNFR2) and FIG. 1B (for cynoTNFR2).

Experimental findings from US20250011448A1 (STAIDSON BIOPHARMA, published 2025) are described below.

A word on the IC50: it is the point on the concentration scale where inhibition reaches its midpoint. One may read the Kd as the constant that tells how readily two partners part at equilibrium. As usually defined, the koff is the rate constant with which the complex falls apart. The term kon denotes the second-order rate constant of association. Usually EC50 stands for the concentration at which the effect is half-maximal.

B1: 51B5 chimeric anti-TNFR2 antibody (antibody, V domains shown)
VH: QVQLQQSGAELARPGTSVKLSCKASGYTFTDDYIDWVKQRTGQGLEWIGEIYPGSGNTYYNEKFKGKATLTADKSSSTAYMQLSSLTSEDSAVYFCARSQVYGKIAMDHWGQGTSVTVSS
VL: DIVLTQSPASLAVSLGQRATISCRASESVDNSGNSFMHWYQQIPGQPPKLLIYRASNLESGIPARFSGSGARTDFTLTIDPVGAVDVATYYCQQSKEDPYTFGGGTKLEIE
notes: Chimeric: mouse variable domains with human constant regions, made as recombinant IgG1
In the case of B1, the IC50 in experiment [1] was determined as 968 pM. In experiment [2], this molecule gave a Kd of 672 pM, a koff of 0.00065 s⁻¹ and an on-rate constant (kon) of 967000 M⁻¹ s⁻¹. In addition, in experiment [3], a half-maximal response (EC50) required 49.4 pM.
